The source of these data is paper PMC4043820.

The target in the series is OsWRKY53 (WT) (Oryza sativa (rice)) (UniProt A7BEY7). In words: EMSA. To be noted: 12 mM HEPES-KOH pH 8.0, 60 mM KCl, 4 mM MgCl2, 1 mM EDTA, 12% glycerol, 1 mM DTT, 2.5 mM PMSF, 0.1 ug protein in 20 ul, 20 min on ice; 6% PAGE in 1x TBE at …. Background: In EMSA bound probe runs differently from free probe, usually more slowly.
OsWRKY53 (WT) (Oryza sativa (rice)), sequence (A7BEY7 entry or part of it): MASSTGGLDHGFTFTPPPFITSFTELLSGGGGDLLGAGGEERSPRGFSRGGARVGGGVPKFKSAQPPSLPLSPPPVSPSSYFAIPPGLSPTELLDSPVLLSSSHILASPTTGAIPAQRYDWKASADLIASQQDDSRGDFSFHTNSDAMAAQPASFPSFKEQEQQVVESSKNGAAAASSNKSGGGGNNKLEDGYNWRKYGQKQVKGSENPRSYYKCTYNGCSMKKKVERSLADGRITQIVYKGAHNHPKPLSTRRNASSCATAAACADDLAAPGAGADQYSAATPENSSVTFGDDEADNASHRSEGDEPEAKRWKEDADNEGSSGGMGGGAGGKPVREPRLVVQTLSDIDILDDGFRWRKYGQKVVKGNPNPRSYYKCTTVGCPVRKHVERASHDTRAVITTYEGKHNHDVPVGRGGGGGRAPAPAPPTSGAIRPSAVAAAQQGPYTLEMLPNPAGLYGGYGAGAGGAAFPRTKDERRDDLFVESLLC

In the case of “TTTGGGGATGCTTCGGCGAAGGGGGTGAGGTCAAAGCTCGTGCGGTTTGACCGGTCAGACGAGGCGGCTGAGGCTCGCGC (double strand) [W-box probe (W)]”, the binding entry was “binds”.
